Reference: patent US6100053A, “Microbial transglutaminases, their production and use” (priority 1994, dated 2000)
Where two headings read alike, the source gives them in different places.

Legend:
[1] = tested on: TGase from Bacteridium (DSM 10093); test: PMSF inhibition, putrescine assay; type: biochemical, Bacteridium sp. DSM 10093; settings: 1.6 mM PMSF; 1 h, 30° C., pH 8.5, α-casein + EDTA; -PMSF = 100
Description: (§1) Each of these washes takes place for 5 min. […] The washed filters are counted directly in scintillation vials.
(§2) A putrescine control assay was performed to investigate whether TGases from different bacterial strains are sensitive to PMSF (phenyl methyl sulfonyl fluoride).
(§3) The assay was run under optimized conditions (see examples 1-3), i.e. 1 h incubation at 30° C., pH 8.5 (2% α-casein+EDTA in 100 mM modified Britton-Robinson-buffer 0.1 M, pH 8.5). Final concentration of PMSF was 1.6 mM. As control an assay including propanol was included: propanol is the solvent of PMSF. This assay ensures that solvent effects are excluded. The assay contained 0.9 M 2-propanol i.e. the same concentration as in PMSF containing assay (addition of 8 μl propanol from 13 M instead of 8 μl PMSF in 2-propanol).

[2] = tested on: TGase from Bacteridium (CBS 495.74); test: PMSF inhibition, putrescine assay; type: biochemical, Bacteridium sp. CBS 495.74; settings: 1.6 mM PMSF; 1 h, 30° C., pH 8.5, α-casein + EDTA; -PMSF = 100
Description: as §1, §2, §3

[3] = tested on: TGase from strain Moo5A10; test: PMSF inhibition, putrescine assay; type: biochemical, Moo5A10 (DSM 10094); settings: 1.6 mM PMSF; 1 h, 30° C., pH 8.5, α-casein + EDTA; -PMSF = 100
Description: as §1, §2, §3

[4] = tested on: TGase from Bacillus aneurinolyticus; test: PMSF inhibition, putrescine assay; type: biochemical; settings: 1.6 mM PMSF; 1 h, 30° C., pH 8.5, α-casein + EDTA; -PMSF = 100
Description: as §1, §2, §3

[5] = tested on: TGase from Bacillus badius; test: PMSF inhibition, putrescine assay; type: biochemical; settings: 1.6 mM PMSF; 1 h, 30° C., pH 8.5, α-casein + EDTA; -PMSF = 100
Description: as §1, §2, §3

[6] = tested on: TGase from Bacillus firmus; test: PMSF inhibition, putrescine assay; type: biochemical; settings: 1.6 mM PMSF; 1 h, 30° C., pH 8.5, α-casein + EDTA; -PMSF = 100
Description: as §1, §2, §3

[7] = tested on: TGase from Bacillus mycoides; test: PMSF inhibition, putrescine assay; type: biochemical; settings: 1.6 mM PMSF; 1 h, 30° C., pH 8.5, α-casein + EDTA; -PMSF = 100
Description: as §1, §2, §3

[8] = biological target: T1, TGase from Streptomyces lydicus (Streptomyces nigrescens, UniProt A0ABY7I822); test: PMSF inhibition, putrescine assay; type: biochemical
T1 construct: mature 331 aa, N-terminus […]
T1 sequence (A0ABY7I822 88-418): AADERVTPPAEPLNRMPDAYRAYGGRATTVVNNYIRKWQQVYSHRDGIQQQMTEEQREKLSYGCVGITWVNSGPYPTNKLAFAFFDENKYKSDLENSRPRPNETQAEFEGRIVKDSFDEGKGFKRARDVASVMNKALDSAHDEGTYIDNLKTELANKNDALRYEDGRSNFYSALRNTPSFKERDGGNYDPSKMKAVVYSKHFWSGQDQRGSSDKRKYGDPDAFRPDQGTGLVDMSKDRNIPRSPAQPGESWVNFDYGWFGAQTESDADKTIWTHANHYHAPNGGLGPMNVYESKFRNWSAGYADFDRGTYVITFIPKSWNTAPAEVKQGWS
Description: as §1, §2, §3

[9] = biological target: T2, purified transglutaminase from S. mobaraense (Streptomyces mobaraensis, UniProt P81453); test: PMSF sensitivity of purified transglutaminase; type: biochemical, Streptoverticillium mobaraense
T2 sequence (P81453 77-407): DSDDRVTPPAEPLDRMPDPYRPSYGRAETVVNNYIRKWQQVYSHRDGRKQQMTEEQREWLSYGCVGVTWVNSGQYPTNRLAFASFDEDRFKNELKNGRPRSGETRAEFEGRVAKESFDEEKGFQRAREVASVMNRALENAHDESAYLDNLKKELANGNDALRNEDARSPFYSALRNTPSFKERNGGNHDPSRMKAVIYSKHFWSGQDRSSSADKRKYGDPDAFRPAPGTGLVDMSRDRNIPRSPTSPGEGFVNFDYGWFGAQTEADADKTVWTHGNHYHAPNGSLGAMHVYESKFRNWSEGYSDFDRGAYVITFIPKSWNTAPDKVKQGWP
Description: as §2

[10] = biological target: Ca2+-independent transglutaminase from Streptomyces platensis (Streptomyces platensis, UniProt A5PHK5); settings: 50 μM inhibitor, nine fold molar excess to cysteine; 2 h at room temperature in the putrescine assay; duplicate
[11] = biological target: transglutaminase from S. mobaraense (Streptomyces mobaraensis, UniProt P81453); settings: 1 mM inhibitor, preincubation 30 min at 25° C.; cited from earlier work
[12] = biological target: α-casein
[13] = biological target: α-casein; remark: listed apart in the source

Sequence of Ca2+-independent transglutaminase from Streptomyces platensis (A5PHK5 88-418): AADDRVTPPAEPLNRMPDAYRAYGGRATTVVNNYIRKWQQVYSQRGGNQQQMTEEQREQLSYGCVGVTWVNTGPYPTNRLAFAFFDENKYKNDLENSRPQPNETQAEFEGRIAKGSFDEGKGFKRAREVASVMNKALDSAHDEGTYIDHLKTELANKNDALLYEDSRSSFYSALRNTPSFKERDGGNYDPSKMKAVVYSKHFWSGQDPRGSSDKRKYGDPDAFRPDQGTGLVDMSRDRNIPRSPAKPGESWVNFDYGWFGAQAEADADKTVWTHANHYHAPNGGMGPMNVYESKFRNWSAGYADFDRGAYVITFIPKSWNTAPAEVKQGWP

O=S(=O)(F)Cc1ccccc1 [PMSF, phenylmethylsulfonylfluoride]
Relative activity (%) +PMSP [1]: 75%
Relative activity (%) +PMSP [2]: 75%
Relative activity (%) +PMSP [3]: 75%
Relative activity (%) +PMSP [4]: 47%
Relative activity (%) +PMSP [5]: 62%
Relative activity (%) +PMSP [6]: 55%
Relative activity (%) +PMSP [7]: 35%
Relative activity (%) +PMSP ([8]; 1.6 mM PMSF, 1 h, 30° C., pH 8.5, α-casein + EDTA, -PMSF = 100): 175%
sensitivity to PMSF ([8]; purified transglutaminase): insensitive
sensitivity to PMSF [9]: insensitive

O=C(O)CI [mono-iodoacetic acid]
residual activity [10]: no residual activity
residual activity [11]: 76%

Ca2+-independent transglutaminase from Streptomyces platensis (enzyme)
Units/ml (putrescine assay) [12]: 1.4 units/ml

TGase sample of B. amyloliquefaciens (pool or library)
Units/ml (putrescine assay) [12]: 0.06 units/ml

TGase sample of Bacillus aneurinolyticus (pool or library)
Units/ml (putrescine assay) [12]: 0.8 units/ml

TGase sample of Bacillus badius (pool or library)
Units/ml (putrescine assay) [12]: 0.8 units/ml

TGase sample of Bacillus firmus, ATCC 17060 (pool or library)
Units/ml (putrescine assay) [12]: 0.6 units/ml

TGase sample of Bacillus firmus, DSM 12 (pool or library)
Units/ml (putrescine assay) [12]: 0.03 units/ml

TGase sample of Bacillus megaterium, AJ 3355 (pool or library)
Units/ml (putrescine assay) [12]: 0.03 units/ml

TGase sample of Bacillus megaterium, ATCC 13632 (pool or library)
Units/ml (putrescine assay) [12]: 0.02 units/ml

TGase sample of Bacillus megaterium, ATCC 15450 (pool or library)
Units/ml (putrescine assay) [12]: 0.02 units/ml

TGase sample of Bacillus mycoides (pool or library)
Units/ml (putrescine assay) [12]: 0.4 units/ml

TGase sample of Bacillus sp., ATCC 21537 (pool or library)
Units/ml (putrescine assay) [12]: 0.1 units/ml

TGase sample of Bacteridium sp., CBS 495.74 (pool or library)
Units/ml (putrescine assay) [12]: 0.5 units/ml

TGase sample of Bacteridium sp., DSM 10093 (pool or library)
Units/ml (putrescine assay) [12]: 0.3 units/ml

TGase sample of Hafnia alvei (pool or library)
Units/ml (putrescine assay) [12]: 0.3 units/ml

TGase sample of Hydrogenophaga palleroni (Basonym: Pseudomonas palleroni) (pool or library)
Units/ml (putrescine assay) [12]: 0.6 units/ml

TGase sample of Kitasatao purpurea (pool or library)
Units/ml (putrescine assay) [12]: 0.3 units/ml

TGase sample of Pseudomonas amyloderamosa (pool or library)
Units/ml (putrescine assay) [12]: 0.08 units/ml

TGase sample of Pseudomonas putida, DSM 1693 (pool or library)
Units/ml (putrescine assay) [12]: 0.84 units/ml

TGase sample of Pseudomonas putida, NCIMB 9869 (pool or library)
Units/ml (putrescine assay) [12]: 1.4 units/ml

TGase sample of Rothia dentocariosa (pool or library)
Units/ml (putrescine assay) [12]: 0.9 units/ml

TGase sample of Streptomyces nigrescens (pool or library)
Units/ml (putrescine assay) [12]: 0.3 units/ml

TGase sample of Streptomyces sioyaensis (pool or library)
Units/ml (putrescine assay) [12]: 3.3 units/ml

TGase sample of Zymomonas mobilis (pool or library)
Units/ml (putrescine assay) [12]: 0.36 units/ml

transglutaminase from Streptomyces lydicus, NRRL B-3446 (former Streptomyces libani) (enzyme)
Units/ml (putrescine assay) [12]: 1.3 units/ml

transglutaminase preparation (culture broth) of Pholiota jahnii (pool or library)
Units/ml (putrescine assay) [13]: 0.21 Units/ml

transglutaminase preparation (culture broth) of Pleurotus dryinus (pool or library)
Units/ml (putrescine assay) [13]: 0.22 Units/ml

transglutaminase preparation (culture broth) of Pleurotus sp. (pool or library)
Units/ml (putrescine assay) [13]: 2.36 Units/ml

transglutaminase preparation (culture broth) of Podospora tetraspora (pool or library)
Units/ml (putrescine assay) [13]: 0.3 Units/ml

transglutaminase preparation (culture broth) of Preussia isomera (pool or library)
Units/ml (putrescine assay) [13]: 0.22 Units/ml

transglutaminase preparation (culture broth) of Psathyrella condolleana (pool or library)
Units/ml (putrescine assay) [13]: 0.19 Units/ml

transglutaminase preparation (culture broth) of Pycnoporus cinnabarinus (pool or library)
Units/ml (putrescine assay) [13]: 0.14 Units/ml

transglutaminase preparation (culture broth) of Rhizoctonia solani (pool or library)
Units/ml (putrescine assay) [13]: 0.17 Units/ml

transglutaminase preparation (culture broth) of Savoryella lignicola (pool or library)
Units/ml (putrescine assay) [13]: 6.24 Units/ml

transglutaminase preparation (culture broth) of Scytinostroma portentosum (pool or library)
Units/ml (putrescine assay) [13]: 0.14 Units/ml

transglutaminase preparation (culture broth) of Sporormiella australis (pool or library)
Units/ml (putrescine assay) [13]: 0.13 Units/ml

transglutaminase preparation (culture broth) of Sporormiella minima (pool or library)
Units/ml (putrescine assay) [13]: 0.2 Units/ml

transglutaminase preparation (culture broth) of Stropharia coerulea (pool or library)
Units/ml (putrescine assay) [13]: 0.16 Units/ml

transglutaminase preparation (culture broth) of Talaromyces helicus (pool or library)
Units/ml (putrescine assay) [13]: 0.23 Units/ml

transglutaminase preparation (culture broth) of Trametes hirsuta (pool or library)
Units/ml (putrescine assay) [13]: 0.21 Units/ml

transglutaminase preparation (culture broth) of Trichoderma harzianum (pool or library)
Units/ml (putrescine assay) [13]: 0.25 Units/ml

transglutaminase preparation (culture broth) of Tricholoma flavovirens (pool or library)
Units/ml (putrescine assay) [13]: 0.16 Units/ml

transglutaminase preparation (culture broth) of Tricholoma myomyces (pool or library)
Units/ml (putrescine assay) [13]: 0.23 Units/ml

transglutaminase preparation (culture broth) of Valsa pini (pool or library)
Units/ml (putrescine assay) [13]: 0.73 Units/ml

transglutaminase preparation (culture broth) of Warcupiella spinulosa (pool or library)
Units/ml (putrescine assay) [13]: 0.41 Units/ml

transglutaminase preparation (culture broth) of Xylaria sp (pool or library)
Units/ml (putrescine assay) [13]: 0.28 Units/ml
